± gives the standard deviation of the averaged measurements.
Key:
MCF7 = test: percentage of EdU-negative (G0-arrested) nuclei per well, 72 h; higher = more G0 arrest; conditions: reference: sequence is the full UniProt precursor, the tested protein was the secreted form or ectodomain
hTERT-HMEC = test: as above; conditions: reference: sequence is the full UniProt precursor, the tested protein was the secreted form or ectodomain
[1] = protein concentration 0.03125 µM
[2] = protein concentration 0.3125 µM
[3] = protein concentration 0.0225 µM
[4] = protein concentration 0.01125 µM
[5] = protein concentration 0.1125 µM
[6] = protein concentration 0.0214725 µM
[7] = protein concentration 0.214725 µM
[8] = protein concentration 0.0257143 µM
[9] = protein concentration 0.257143 µM
[10] = protein concentration 0.0195 µM
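Note: secreted proteins added to cultured cells, EdU pulse at the end, nuclei found by Hoechst imaging, EdU status from nuclear versus surrounding ring intensity ratio, PBS as neutral control.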

MHYCVLSAFLILHLVTVALSLSTCSTLDMDQFMRKRIEAIRGQILSKLKLTSPPEDYPEPEEVPPEVISIYNSTRDLLQEKASRRAAACERERSDEEYYAKEVYKIDMPPFFPSENAIPPTFYRPYFRIVRFDVSAMEKNASNLVKAEFRVFRLQNPKARVPEQRIELYQILKSKDLTSPTQRYIDSKVVKTRAEGEWLSFDVTDAVHEWLHHKDRNLGFKISLHCPCCTFVPSNNYIIPNKSEELEARFAGIDGTSTYTSGDQKTIKSTRKKNSGKTPHLLLMLLPSYRLESQQTNRRKKRALDAAYCFRNVQDNCCLRPLYIDFKRDLGWKWIHEPKGYNANFCAGACPYLWSSDTQHSRVLSLYNTINPEASASPCCVSQDLEPLTILYYIGKTPKIEQLSNMIVKSCKCS
percentage of EdU-negative (MCF7; [1]): 30.8 ± 2.4%
percentage of EdU-negative (MCF7; [2]): 40.6 ± 2.4%
percentage of EdU-negative (hTERT-HMEC; [1]): 4.63 ± 1.4%
percentage of EdU-negative (hTERT-HMEC; [2]): 15.8 ± 4.9%

MIAFLLTSVLMIPHAGGHPLDTPHLPQELPPGLPNNINITFFSGMFKNVESVAEIFDCLGPHFTWLQAVFTNFPVLIQFVNGMKCVAGLCPRDFEDYGCTCRFEMEGLPVDESDSCCFQHRRCYEEAAEMDCLQDPAKLSTEVNCVSKKIICESKDNCEHLLCTCDKAAIECLARSSLNSSLNLLDTSFCLAQTPETTIKEDLTTLLPRVVPVEPTDTSLTALSGEEAGHDQEGVGAARATSPPGSAEIVATRVTAKIVTLVPAGIKSLGLAVSSVENDPEETTEKACDRFTFLHLGSGDNMQVMPQLGEMLFCLTSRCPEEFESYGCYCGQEGRGEPRDDLDRCCLSHHCCLEQVRRLGCLLERLPWSPVVCVDHTPKCGGQSLCEKLLCACDQTAAECMTSASFNQSLKSPSRLGCPGQPAACEDSLHPVPAAPTLGSSSEEDSEEDPPQEDLGRAKRFLRKSLGPLGIGPLHGR
percentage of EdU-negative (MCF7; [3]): 26.2 ± 2.5%
percentage of EdU-negative (MCF7; protein concentration 0.225 µM): 25.7 ± 0.78%
percentage of EdU-negative (hTERT-HMEC; [3]): 5.21 ± 0.36%
percentage of EdU-negative (hTERT-HMEC; protein concentration 0.225 µM): 5.66 ± 0.11%

MICLVLTIFANLFPAACTGAHERTFLAVKPDGVQRRLVGEIVRRFERKGFKLVALKLVQASEELLREHYAELRERPFYGRLVKYMASGPVVAMVWQGLDVVRTSRALIGATNPADAPPGTIRGDFCIEVGKNLIHGSDSVESARREIALWFRADELLCWEDSAGHWLYE
percentage of EdU-negative (MCF7; [3]): 25.5 ± 3.9%
percentage of EdU-negative (MCF7; protein concentration 0.225 µM): 22.9 ± 1.8%
percentage of EdU-negative (hTERT-HMEC; [3]): 4.25 ± 0.15%
percentage of EdU-negative (hTERT-HMEC; protein concentration 0.225 µM): 5.77 ± 0.68%

MICQKFCVVLLHWEFIYVITAFNLSYPITPWRFKLSCMPPNSTYDYFLLPAGLSKNTSNSNGHYETAVEPKFNSSGTHFSNLSKTTFHCCFRSEQDRNCSLCADNIEGKTFVSTVNSLVFQQIDANWNIQCWLKGDLKLFICYVESLFKNLFRNYNYKVHLLYVLPEVLEDSPLVPQKGSFQMVHCNCSVHECCECLVPVPTAKLNDTLLMCLKITSGGVIFQSPLMSVQPINMVKPDPPLGLHMEITDDGNLKISWSSPPLVPFPLQYQVKYSENSTTVIREADKIVSATSLLVDSILPGSSYEVQVRGKRLDGPGIWSDWSTPRVFTTQDVIYFPPKILTSVGSNVSFHCIYKKENKIVPSKEIVWWMNLAEKIPQSQYDVVSDHVSKVTFFNLNETKPRGKFTYDAVYCCNEHECHHRYAELYVIDVNINISCETDGYLTKMTCRWSTSTIQSLAESTLQLRYHRSSLYCSDIPSIHPISEPKDCYLQSDGFYECIFQPIFLLSGYTMWIRINHSLGSLDSPPTCVLPDSVVKPLPPSSVKAEITINIGLLKISWEKPVFPENNLQFQIRYGLSGKEVQWKMYEVYDAKSKSVSLPVPDLCAVYAVQVRCKRLDGLGYWSNWSNPAYTVVMDIKVPMRGPEFWRIINGDTMKKEKNVTLLWKPLMKNDSLCSVQRYVINHHTSCNGTWSEDVGNHTKFTFLWTEQAHTVTVLAINSIGASVANFNLTFSWPMSKVNIVQSLSAYPLNSSCVIVSWILSPSDYKLMYFIIEWKNLNEDGEIKWLRISSSVKKYYIHDHFIPIEKYQFSLYPIFMEGVGKPKIINSFTQDDIEKHQSDAGLYVIVPVIISSSILLLGTLLISHQRMKKLFWEDVPNPKNCSWAQGLNFQKPETFEHLFIKHTASVTCGPLLLEPETISEDISVDTSWKNKDEMMPTTVVSLLSTTDLEKGSVCISDQFNSVNFSEAEGTEVTYEDESQRQPFVKYATLISNSKPSETGEEQGLINSSVTKCFSSKNSPLKDSFSNSSWEIEAQAFFILSDQHPNIISPHLTFSEGLDELLKLEGNFPEENNDKKSIYYLGVTSIKKRESGVLLTDKSRVSCPFPAPCLFTDIRVLQDSCSHFVENNINLGTSSKKTFASYMPQFQTCSTQTHKIMENKMCDLTV
percentage of EdU-negative (MCF7; protein concentration 0.012 µM): 23.4 ± 3.1%
percentage of EdU-negative (MCF7; protein concentration 0.12 µM): 21.2 ± 0.96%
percentage of EdU-negative (hTERT-HMEC; protein concentration 0.012 µM): 5.06 ± 0.43%
percentage of EdU-negative (hTERT-HMEC; protein concentration 0.12 µM): 5.17 ± 0.64%

MIFLLLMLSLELQLHQIAALFTVTVPKELYIIEHGSNVTLECNFDTGSHVNLGAITASLQKVENDTSPHRERATLLEEQLPLGKASFHIPQVQVRDEGQYQCIIIYGVAWDYKYLTLKVKASYRKINTHILKVPETDEVELTCQATGYPLAEVSWPNVSVPANTSHSRTPEGLYQVTSVLRLKPPPGRNFSCVFWNTHVRELTLASIDLQSQMEPRTHPTWLLHIFIPFCIIAFIFIATVIALRKQLCQKLYSSKDTTKRPVTTTKREVNSAI [Q9BQ51]
percentage of EdU-negative (MCF7; [3]): 23.9 ± 0.28%
percentage of EdU-negative (MCF7; protein concentration 0.225 µM): 24.6 ± 0.78%
percentage of EdU-negative (hTERT-HMEC; [3]): 4.79 ± 0.078%
percentage of EdU-negative (hTERT-HMEC; protein concentration 0.225 µM): 7.37 ± 0.34%

MIFLTALPLFWIMISASRGGHWGAWMPSSISAFEGTCVSIPCRFDFPDELRPAVVHGVWYFNSPYPKNYPPVVFKSRTQVVHESFQGRSRLLGDLGLRNCTLLLSNVSPELGGKYYFRGDLGGYNQYTFSEHSVLDIVNTPNIVVPPEVVAGTEVEVSCMVPDNCPELRPELSWLGHEGLGEPAVLGRLREDEGTWVQVSLLHFVPTREANGHRLGCQASFPNTTLQFEGYASMDVKYPPVIVEMNSSVEAIEGSHVSLLCGADSNPPPLLTWMRDGTVLREAVAESLLLELEEVTPAEDGVYACLAENAYGQDNRTVGLSVMYAPWKPTVNGTMVAVEGETVSILCSTQSNPDPILTIFKEKQILSTVIYESELQLELPAVSPEDDGEYWCVAENQYGQRATAFNLSVEFAPVLLLESHCAAARDTVQCLCVVKSNPEPSVAFELPSRNVTVNESEREFVYSERSGLVLTSILTLRGQAQAPPRVICTARNLYGAKSLELPFQGAHRLMWAKIGPVGAVVAFAILIAIVCYITQTRRKKNVTESPSFSAGDNPPVLFSSDFRISGAPEKYESERRLGSERRLLGLRGEPPELDLSYSHSDLGKRPTKDSYTLTEELAEYAEIRVK
percentage of EdU-negative (MCF7; [4]): 28.5 ± 0.33%
percentage of EdU-negative (MCF7; [5]): 28.73 ± 0.11%
percentage of EdU-negative (hTERT-HMEC; [4]): 5.66 ± 0.36%
percentage of EdU-negative (hTERT-HMEC; [5]): 6.55 ± 0.84%

MIFPWKCQSTQRDLWNIFKLWGWTMLCCDFLAHHGTDCWTYHYSEKPMNWQRARRFCRDNYTDLVAIQNKAEIEYLEKTLPFSRSYYWIGIRKIGGIWTWVGTNKSLTEEAENWGDGEPNNKKNKEDCVEIYIKRNKDAGKWNDDACHKLKAALCYTASCQPWSCSGHGECVEIINNYTCNCDVGYYGPQCQFVIQCEPLEAPELGTMDCTHPLGNFSFSSQCAFSCSEGTNLTGIEETTCGPFGNWSSPEPTCQVIQCEPLSAPDLGIMNCSHPLASFSFTSACTFICSEGTELIGKKKTICESSGIWSNPSPICQKLDKSFSMIKEGDYNPLFIPVAVMVTAFSGLAFIIWLARRLKKGKKSKRSMNDPY
percentage of EdU-negative (MCF7; [3]): 24.2 ± 0.78%
percentage of EdU-negative (MCF7; protein concentration 0.225 µM): 32.8 ± 4%
percentage of EdU-negative (hTERT-HMEC; [3]): 4.92 ± 0.1%
percentage of EdU-negative (hTERT-HMEC; protein concentration 0.225 µM): 11.1 ± 1.2%

MIHGRSVLHIVASLIILHLSGATKKGTEKQTTSETQKSVQCGTWTKHAEGGIFTSPNYPSKYPPDRECIYIIEAAPRQCIELYFDEKYSIEPSWECKFDHIEVRDGPFGFSPIIGRFCGQQNPPVIKSSGRFLWIKFFADGELESMGFSARYNFTPDPDFKDLGALKPLPACEFEMGGSEGIVESIQIMKEGKATASEAVDCKWYIRAPPRSKIYLRFLDYEMQNSNECKRNFVAVYDGSSSVEDLKAKFCSTVANDVMLRTGLGVIRMWADEGSRNSRFQMLFTSFQEPPCEGNTFFCHSNMCINNTLVCNGLQNCVYPWDENHCKEKRKTSLLDQLTNTSGTVIGVTSCIVIILIIISVIVQIKQPRKKYVQRKSDFDQTVFQEVFEPPHYELCTLRGTGATADFADVADDFENYHKLRRSSSKCIHDHHCGSQLSSTKGSRSNLSTRDASILTEMPTQPGKPLIPPMNRRNILVMKHSYSQDAADACDIDEIEEVPTTSHRLSRHDKAVQRFCLIGSLSKHESEYNTTRV [Q8TDF5]
percentage of EdU-negative (MCF7; [6]): 23.53 ± 0.037%
percentage of EdU-negative (MCF7; [7]): 26.76 ± 0.058%
percentage of EdU-negative (hTERT-HMEC; [6]): 4.64 ± 0.48%
percentage of EdU-negative (hTERT-HMEC; [7]): 7.76 ± 0.38%

MIHTNLKKKFSCCVLVFLLFAVICVWKEKKKGSYYDSFKLQTKEFQVLKSLGKLAMGSDSQSVSSSSTQDPHRGRQTLGSLRGLAKAKPEASFQVWNKDSSSKNLIPRLQKIWKNYLSMNKYKVSYKGPGPGIKFSAEALRCHLRDHVNVSMVEVTDFPFNTSEWEGYLPKESIRTKAGPWGRCAVVSSAGSLKSSQLGREIDDHDAVLRFNGAPTANFQQDVGTKTTIRLMNSQLVTTEKRFLKDSLYNEGILIVWDPSVYHSDIPKWYQNPDYNFFNNYKTYRKLHPNQPFYILKPQMPWELWDILQEISPEEIQPNPPSSGMLGIIIMMTLCDQVDIYEFLPSKRKTDVCYYYQKFFDSACTMGAYHPLLYEKNLVKHLNQGTDEDIYLLGKATLPGFRTIHC
percentage of EdU-negative (MCF7; [8]): 23.7 ± 0.62%
percentage of EdU-negative (MCF7; [9]): 26.3 ± 1.7%
percentage of EdU-negative (hTERT-HMEC; [8]): 4.71 ± 0.62%
percentage of EdU-negative (hTERT-HMEC; [9]): 4.48 ± 0.15%

MIIDSSRIPSFTQLHSTMTRAPLLLLCVALVLLGHVNGATVRNEDKWKPLNNPRNRDLFFRRLQAYFKGRGLDLGTFPNPFPTNENPRPLSFQSELTASASADYEEQKNSFHNYLKG [Q6UXQ4]
percentage of EdU-negative (MCF7; [10]): 24.6 ± 2.1%
percentage of EdU-negative (MCF7; protein concentration 0.195 µM): 25.2 ± 1%
percentage of EdU-negative (hTERT-HMEC; [10]): 4.53 ± 0.63%
percentage of EdU-negative (hTERT-HMEC; protein concentration 0.195 µM): 7.36 ± 0.4%

MIIVAHVLLILLGATEILQADLLPDEKISLLPPVNFTIKVTGLAQVLLQWKPNPDQEQRNVNLEYQVKINAPKEDDYETRITESKCVTILHKGFSASVRTILQNDHSLLASSWASAELHAPPGSPGTSIVNLTCTTNTTEDNYSRLRSYQVSLHCTWLVGTDAPEDTQYFLYYRYGSWTEECQEYSKDTLGRNIACWFPRTFILSKGRDWLAVLVNGSSKHSAIRPFDQLFALHAIDQINPPLNVTAEIEGTRLSIQWEKPVSAFPIHCFDYEVKIHNTRNGYLQIEKLMTNAFISIIDDLSKYDVQVRAAVSSMCREAGLWSEWSQPIYVGNDEHKPLREWFVIVIMATICFILLILSLICKICHLWIKLFPPIPAPKSNIKDLFVTTNYEKAGSSETEIEVICYIEKPGVETLEDSVF
percentage of EdU-negative (MCF7; [3]): 25.4 ± 1.1%
percentage of EdU-negative (MCF7; protein concentration 0.225 µM): 25.9 ± 1.3%
percentage of EdU-negative (hTERT-HMEC; [3]): 4.86 ± 0.92%
percentage of EdU-negative (hTERT-HMEC; protein concentration 0.225 µM): 5.18 ± 0.52%

From the supplement of paper PMC11316812
